Earlier results as cited in patent US20030158199A1, “Novel compounds for inhibition of Tie-2” (KYLIX, B.V., priority 2002, published 2003).

System: tumor metastasis
Conditions: delivered at the time of surgical excision of primary tumors, mouse model; cited from earlier work

B1: Ad-ExTek: a soluble adenoviral expressed extracellular domain of Tie-2 (protein, UniProt Q02763 23-748, looked up)
extracellular domain: AMDLILINSLPLVSDAETSLTCIASGWRPHEPITIGRDFEALMNQHQDPLEVTQDVTREWAKKVVWKREKASKINGAYFCEGRVRGEAIRIRTMKMRQQASFLPATLTMTVDKGDNVNISFKKVLIKEEDAVIYKNGSFIHSVPRHEVPDILEVHLPHAQPQDAGVYSARYIGGNLFTSAFTRLIVRRCEAQKWGPECNHLCTACMNNGVCHEDTGECICPPGFMGRTCEKACELHTFGRTCKERCSGQEGCKSYVFCLPDPYGCSCATGWKGLQCNEACHPGFYGPDCKLRCSCNNGEMCDRFQGCLCSPGWQGLQCEREGIQRMTPKIVDLPDHIEVNSGKFNPICKASGWPLPTNEEMTLVKPDGTVLHPKDFNHTDHFSVAIFTIHRILPPDSGVWVCSVNTVAGMVEKPFNISVKVLPKPLNAPNVIDTGHNFAVINISSEPYFGDGPIKSKKLLYKPVNHYEAWQHIQVTNEIVTLNYLEPRTEYELCVQLVRRGEGGEGHPGPVRRFTTASIGLPPPRGLNLLPKSQTTLNLTWQPIFPSSEDDFYVEVERRSVQKSDQQNIKVPGNLTSVLLNNLHPREQYVVRARVNTKAQGEWSEDLTAWTLSDILPPQPENIKISNITHSSAVISWTILDGYSISSITIRYKVQGKNEDQHVDVKIKNATITQYQLKGLEPETAYQVDIFAENNIGSSNPAFSHELVTLPESQAPADLGGGKMLL
modifications: extracellular domain
  tumor metastasis: inhibited tumor metastasis
